From patent publication US9625458 come the findings set out here.

Where a chain is given by its changes, count along the chain named. In names and notes the source's numbering stands.

The Kd is the constant that tells how readily two partners part at equilibrium.

The labels stand for the following.
B1: dipeptide BP D450C-Acrylodan conjugate (receptor, E. coli, not shown: small tags and cut ends)
chain: MKTLVYCSEGSPEGFNPQLFTSGTTYDASSVPLYNRLVEFKIGTTEVIPGLAEKWEVSEDGKTYTFHLRKGVKWHDNKEFKPTRELNADDVVFSFDRQKNAQNPYHKVSGGSYEYFEGMGLPELISEVKKVDDNTVQFVLTRPEAPFLADLAMDFASILSKEYADAMMKAGTPEKLDLNPIGTGPFQLQQYQKDSRIRYKAFDGYWGTKPQIDTLVFSITPDASVRYAKLQKNECQVMPYPNPADIARMKQDKSINLMEMPGLNVGYLSYNVQKKPLDDVKVRQALTYAVNKDAIIKAVYQGAGVSAKNLIPPTMWGYNDDVQDYTYDPEKAKALLKEAGLEKGFSIDLWAMPVQRPYNPNARRMAEMIQADWAKVGVQAKIVTYEWGEYLKRAKDGEHQTVMMGWTGDNGDPDNFFATLFSCAASEQGSNYSKWCYKPFEDLIQPARATCDHNKRVELYKQAQVVMHDQAPALIIAHSTVFEPVRKEVKGYVVDPLGKHHFENVSIE
modifications: acrylodan fluorophore conjugated to the thiol of Cys 450
B2: dipeptide BP D450C-JPW4045 conjugate (receptor, E. coli, not shown: small tags and cut ends)
chain: B1 chain
modifications: JPW4045 fluorophore conjugated to the thiol of Cys 450
B3: dipeptide BP K394C-Fluorescein conjugate (receptor, E. coli, not shown: small tags and cut ends)
chain: B1 chain with K395C, C451D
modifications: fluorescein (5-iodoacetamidofluorescein) conjugated to the thiol of Cys 394
B4: dipeptide BP W315C-NBD conjugate (receptor, E. coli, not shown: small tags and cut ends)
chain: B1 chain with W316C, C451D
modifications: NBD fluorophore conjugated to the thiol of Cys 315
B5: dipeptide BP K394C-JPW4042 conjugate (receptor, E. coli, not shown: small tags and cut ends)
chain: B1 chain with K395C, C451D
modifications: JPW4042 fluorophore conjugated to the thiol of Cys 394
B6: dipeptide BP W315C-JPW4045 conjugate (receptor, E. coli, not shown: small tags and cut ends)
chain: B1 chain with W316C, C451D
modifications: JPW4045 fluorophore conjugated to the thiol of Cys 315
B7: dipeptide BP W315C-Acrylodan conjugate (receptor, E. coli, not shown: small tags and cut ends)
chain: B1 chain with W316C, C451D
modifications: acrylodan fluorophore conjugated to the thiol of Cys 315
B8: dipeptide BP D450C-JPW4042 conjugate (receptor, E. coli, not shown: small tags and cut ends)
chain: B1 chain
modifications: JPW4042 fluorophore conjugated to the thiol of Cys 450
B9: dipeptide BP K394C-JPW4039 conjugate (receptor, E. coli, not shown: small tags and cut ends)
chain: B1 chain with K395C, C451D
modifications: JPW4039 fluorophore conjugated to the thiol of Cys 394
B10: dipeptide BP K394C-Acrylodan conjugate (receptor, E. coli, not shown: small tags and cut ends)
chain: B1 chain with K395C, C451D
modifications: acrylodan fluorophore conjugated to the thiol of Cys 394
B11: dipeptide BP T44C conjugated to NBD (receptor, E. coli, not shown: small tags and cut ends)
chain: B1 chain with T45C, C451D
modifications: NBD (N,N'-dimethyl-N-(iodoacetyl)-N'-(7-nitrobenz-2-oxa-1,3-diazol-4-yl)ethylenediamide) conjugated to the thiol of Cys 44
B12: dipeptide BP K394C conjugated to fluorescein (receptor, E. coli, not shown: small tags and cut ends)
chain: B1 chain with K395C, C451D
modifications: fluorescein (5-iodoacetamidofluorescein) conjugated to the thiol of Cys 394
B13: dipeptide BP K394C mutant conjugated to NBD (protein, Escherichia coli, not shown: small tags and cut ends)
chain: B1 chain with K395C, C451D
modifications: NBD fluorophore (N,N'-dimethyl-N-(iodoacetyl)-N'-(7-nitrobenz-2-oxa-1,3-diazol-4-yl)ethylenediamide) conjugated to the thiol of Cys 394

The target of one assay is Gly-Leu dipeptide. The experiment in a line: fluorimetric titration of the fluorophore conjugate with ligand, fit to binding isotherm.
In the case of B1, the Kd is 11 µM.
Turning to B2, the dissociation constant (Kd) is 2 µM.
Still for that read-out and setting: for B3 the value was 93 µM; for B4, 0.06 µM.
In turn, B5 registered a Kd of 78 µM.
Still for that read-out and setting: as for B6, the figure is 3.2 µM.
Same read-out and setting: for B7 the value was 0.13 µM; for B8, 1.5 µM.
The same measure, in the same setting: for B9 the value was 30 µM.
B10: the dissociation constant Kd stood at 23 µM.

Another assay concerns the target Gly-Leu dipeptide. Briefly: fluorimetric titration of the fluorophore conjugate with ligand; low end of the range over 21 conjugates.
In the case of B11, the equilibrium dissociation constant (Kd) is 0.006 µM.

The target of a further assay is Gly-Leu dipeptide. The experiment in a line: fluorimetric titration of the fluorophore conjugate with ligand; high end of the range over 21 conjugates.
For the molecule B12, the dissociation constant Kd turned out to be 93 µM.

Another assay concerns the target Gly-Leu dipeptide. Briefly: fluorimetric titration of the fluorophore conjugate with ligand, fit to a binding isotherm.
The molecule B13 came in with a Kd of 0.006 µM.
